# Assay results from patent US20150166627A1 (Sanofi, published 2015).
# Like-named read-outs stand apart in the source and are kept apart here. Non-standard residues stand in square brackets, D forms with d. No end group written: not given here. Met(O2) = CS(=O)(=O)CC[C@H](N)C(=O)O; d(αMeK) = C[C@@](N)(CCCCN)C(=O)O; Met(O) = CS(=O)CC[C@H](N)C(=O)O; αMeOrn = C[C@](N)(CCCN)C(=O)O; αMeK = C[C@](N)(CCCCN)C(=O)O; Nle = CCCC[C@H](N)C(=O)O; Aib = CC(C)(N)C(=O)O
# T1: human GIP receptor (human, UniProt P48546 22-466)
# T1 sequence (looked up): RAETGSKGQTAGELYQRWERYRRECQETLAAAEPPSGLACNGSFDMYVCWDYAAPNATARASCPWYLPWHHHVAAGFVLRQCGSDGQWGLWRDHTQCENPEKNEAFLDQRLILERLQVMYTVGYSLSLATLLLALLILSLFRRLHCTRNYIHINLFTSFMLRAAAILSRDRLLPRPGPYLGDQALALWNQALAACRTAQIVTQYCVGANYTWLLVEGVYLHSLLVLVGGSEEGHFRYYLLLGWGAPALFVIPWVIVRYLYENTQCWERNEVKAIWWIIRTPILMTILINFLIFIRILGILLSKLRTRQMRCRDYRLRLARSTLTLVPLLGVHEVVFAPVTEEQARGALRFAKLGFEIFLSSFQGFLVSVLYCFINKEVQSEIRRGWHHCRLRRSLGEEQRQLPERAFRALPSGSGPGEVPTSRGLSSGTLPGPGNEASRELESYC
# What was measured:
# Experiment in all cases: cell-based or functional assay
# human GLP-1 receptor [1] = molecular target: T2, human GLP-1 receptor (human, UniProt P43220 24-463)
# human glucagon receptor = human glucagon receptor (human, UniProt P47871 26-477)
# Sequence of human glucagon receptor (P47871 26-477): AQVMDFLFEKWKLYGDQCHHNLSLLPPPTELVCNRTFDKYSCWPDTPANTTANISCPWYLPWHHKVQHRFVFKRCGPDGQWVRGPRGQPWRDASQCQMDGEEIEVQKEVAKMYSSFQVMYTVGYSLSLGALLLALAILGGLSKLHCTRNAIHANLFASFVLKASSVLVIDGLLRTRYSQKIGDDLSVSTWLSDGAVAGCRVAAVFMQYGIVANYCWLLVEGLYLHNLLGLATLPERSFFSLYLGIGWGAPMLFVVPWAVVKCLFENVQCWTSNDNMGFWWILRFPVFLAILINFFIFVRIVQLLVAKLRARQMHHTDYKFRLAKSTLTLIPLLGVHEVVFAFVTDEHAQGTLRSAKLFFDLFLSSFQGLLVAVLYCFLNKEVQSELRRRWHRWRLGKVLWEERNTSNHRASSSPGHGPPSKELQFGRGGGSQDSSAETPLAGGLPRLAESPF
# human GIP receptor [2] = molecular target: T1, human GIP receptor
# human GLP-1 receptor [3] = molecular target: T2, human GLP-1 receptor; remark: listed apart in the source
# Target sequence in this assay (P43220 24-463): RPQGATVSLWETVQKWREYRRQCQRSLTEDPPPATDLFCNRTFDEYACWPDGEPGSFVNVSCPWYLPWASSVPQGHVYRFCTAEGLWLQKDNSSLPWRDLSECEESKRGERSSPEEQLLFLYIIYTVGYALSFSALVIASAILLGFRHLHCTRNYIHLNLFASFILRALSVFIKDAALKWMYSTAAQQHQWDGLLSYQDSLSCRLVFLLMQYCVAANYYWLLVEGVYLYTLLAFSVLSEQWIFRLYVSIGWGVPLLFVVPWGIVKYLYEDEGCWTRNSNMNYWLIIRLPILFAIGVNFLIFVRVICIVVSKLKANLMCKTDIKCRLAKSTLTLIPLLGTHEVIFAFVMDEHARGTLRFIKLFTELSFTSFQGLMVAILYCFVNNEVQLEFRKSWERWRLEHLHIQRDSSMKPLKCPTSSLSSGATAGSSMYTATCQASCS
# human GIP receptor [4] = molecular target: T1, human GIP receptor; remark: listed apart in the source
Binder,"EC50 hGLP-1 R [pM], cAMP formation (human GLP-1 receptor [1]) [pM]","EC50 hGLUC R [pM], cAMP formation (human glucagon receptor) [pM]","EC50 hGIP R [pM], cAMP formation (human GIP receptor [2]) [pM]","EC50 hGLP-1 R [pM], cAMP formation (human GLP-1 receptor [3]) [pM]","EC50 hGIP R [pM], cAMP formation (human GIP receptor [4]) [pM]"
Y[Aib]EGTFTSDLSIQMEKEAVRLFIEWLKAGGPSSGAPPPS-NH2 [SEQ ID NO: 9],1.1,> 1e+06,3.1,–,–
Y[Aib]EGTFTSDLSIQLEEEAV[αMeK]LFIEWLKAGGPSSGAPPPS-NH2 [SEQ ID NO: 17],1.1,> 1e+06,1.8,–,–
Y[Aib]EGTFTSDLSIQLEEEAV[Aib]LFIEWLKAGGPSSGAPPPS-NH2 [SEQ ID NO: 16],1,> 1e+06,1.5,–,–
YXEGTFTSDLSIQMEEEAVRLFIEWLKAGGPSSGAPPPS (Aib at position 2; C-terminal amide (-NH2)) [SEQ ID NO: 8],–,> 1e+06,9.8,–,–
YAEGTFTSDVSIYLEGQAAKEFIAWLVKGR (ends and bridges not checked) [Tyr(1)Ile(12)-GLP1],–,–,–,5,3660
Y[Aib]EGTFTSDLSIQLEKEAVRLFIEWLKAGGPSSGAPPPS-NH2 [SEQ ID NO: 20],1,> 1e+06,3.9,–,–
Y[Aib]EGTFTSDLSIQ[Nle]EKEAVRLFIEWLKAGGPSSGAPPPSK-NH2 [SEQ ID NO: 12],–,> 1e+06,8.7,–,–
Y[Aib]EGTFTSDLSIQ[Met(O2)]EKEAVRLFIEWLKAGGPSSGAPPPS-NH2 [SEQ ID NO: 14],0.6,> 1e+06,4.1,–,–
Y[Aib]EGTFTSDLSIQLEEEAVRLFIEWLKAGGPSSGAPPPS-NH2 [SEQ ID NO: 15],1.4,> 1e+06,7.3,–,–
Y[Aib]EGTFTSDLSIQLEEEAV[d(αMeK)]LFIEWLKAGGPSSGAPPPS-NH2 [SEQ ID NO: 18],2,> 1e+06,36.1,–,–
Y[Aib]EGTFTSDLSIQLEEEAV[αMeOrn]LFIEWLKAGGPSSGAPPPS-NH2 [SEQ ID NO: 19],–,> 1e+06,2.2,–,–
Y[Aib]EGTFTSDLSIQ[Met(O)]EKEAVRLFIEWLKAGGPSSGAPPPS-NH2 [SEQ ID NO: 13],0.4,> 1e+06,8.1,–,–
Y[Aib]EGTFTSDLSIQLEKEAVRLFIEWLKAGGPSSGAPPPS-NH2 [SEQ ID NO: 10],–,> 1e+06,6.8,–,–
